Results published in PMC4057782, “tRNA synthetase counteracts c-Myc to develop functional vasculature” (eLife, 2014).

Molecular target: T1, GST-SerRS fusion protein (full-length human SerRS) (human, UniProt P49591 1-514)
T1 construct: also called GST-tagged SerRS
Test: pull-down; GST or GST-SerRS fusion proteins (full-length or domain fragments) incubated with recombinant His-tagged SIRT2 for two hours and pulled down on Glutathione-Sepharose 4B; 20 mM HEPES pH 7.9, 150 mM NaCl, 0.5 mM EDTA, 10% glycerol, 0.1% Triton X-100, 1 mM DTT; SIRT2 detected with anti-His6
Details: both partners purified

T1 sequence (P49591 whole entry, the tested form may be a part): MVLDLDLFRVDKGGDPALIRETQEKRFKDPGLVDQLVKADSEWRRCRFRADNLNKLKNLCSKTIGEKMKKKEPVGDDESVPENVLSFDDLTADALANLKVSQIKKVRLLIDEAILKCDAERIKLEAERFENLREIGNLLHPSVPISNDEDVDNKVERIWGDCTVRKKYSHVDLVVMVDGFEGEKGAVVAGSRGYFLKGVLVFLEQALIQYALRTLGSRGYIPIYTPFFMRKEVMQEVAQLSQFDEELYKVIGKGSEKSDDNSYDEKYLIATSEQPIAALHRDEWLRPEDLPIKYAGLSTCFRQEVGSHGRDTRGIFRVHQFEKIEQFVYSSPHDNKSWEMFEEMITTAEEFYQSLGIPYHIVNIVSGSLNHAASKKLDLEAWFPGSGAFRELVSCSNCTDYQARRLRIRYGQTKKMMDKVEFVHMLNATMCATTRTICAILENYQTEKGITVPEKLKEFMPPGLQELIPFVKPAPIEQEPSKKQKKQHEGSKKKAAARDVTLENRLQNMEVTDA

B1: purified His-tagged human SIRT2 (enzyme, UniProt Q8IXJ6 1-389, looked up)
chain: MAEPDPSHPLETQAGKVQEAQDSDSDSEGGAAGGEADMDFLRNLFSQTLSLGSQKERLLDELTLEGVARYMQSERCRRVICLVGAGISTSAGIPDFRSPSTGLYDNLEKYHLPYPEAIFEISYFKKHPEPFFALAKELYPGQFKPTICHYFMRLLKDKGLLLRCYTQNIDTLERIAGLEQEDLVEAHGTFYTSHCVSASCRHEYPLSWMKEKIFSEVTPKCEDCQSLVKPDIVFFGESLPARFFSCMQSDFLKVDLLLVMGTSLQVQPFASLISKAPLSTPRLLINKEKAGQSDPFLGMIMGLGGGMDFDSKKAYRDVAWLGECDQGCLALAELLGWKKELEDLVRREHASIDAQSGAGVPNPSTSASPKKSPPPAKDEARTTEREKPQ
notes: The SIRT2 of the deacetylase assay is called only 'recombinant human SIRT2'; it may have come from the CycLex kit; also called recombinant SIRT2; His-tagged SIRT2; not shown: His tag, C-terminal, kept
  binding result: binds
